Marks after values point to notes of the source that are not given here.
What was measured:
[1] = test system: patients with moderate to severe psoriasis; assay: PASI 75 response, pooled Phase II (M02-528), CHAMPION and REVEAL by prior systemic therapy; assay type: in vivo, human; settings: for PASI 75 Response: Overall: pooled studies, ITT, missing = nonresponder
Method: For the Phase III studies, study investigators collected patient histories of use of systemic psoriasis treatments over lifetime and response to systemic treatments administered within 12 months of study entry (patient recall of response to treatments administered more than 12 months before enrollment was not collected). For the Phase II study, patient histories of use of systemic treatments for psoriasis administered within 12 months of study entry and response to treatment within 12 months were collected. PASI response rates were assessed through Week 12 for the Phase II study and through Week 16 for the Phase III studies. Intention-to-treat analyses were conducted, with patients with missing PASI responses considered non-responders.

[2] = test system: adult patients with moderate to severe chronic plaque psoriasis; assay: Adverse events, REVEAL 52-week Phase III trial
[3] = test system: patients with moderate to severe chronic plaque psoriasis; settings: in vivo
[4] = Adalimumab Treatment Group (540.5 PY)
[5] = Adalimumab Treatment Group, 52 weeks (540.5 PYs)
[6] = Period A, adalimumab-treated patients

For “Adalimumab: a human anti-TNF mAb, described in U.S. Pat. No. 6,090,382 as D2E7 (HUMIRA, Abbott Laboratories)”, the “PASI 75 Response: Overall” value ([1]; Week 4) was 19.4%, the “PASI 75 Response: Overall” value ([1]; Week 12) was 68.1% and the “PASI 75 Response: Lack of Response: MTX” value ([1]; Week 16, patients with prior lack of response to MTX (N = 32)) was 65.6% * (N = 32). The “PASI 75 Response: Lack of Response: Cyclosporine” value ([1]; Week 16, patients with prior lack of response to cyclosporine (N = 7)) was 71.4% (N = 7), the “PASI 75 Response: Lack of Response: Oral PUVA” value ([1]; Week 16, patients with prior lack of response to oral PUVA (N = 6)) was 83.3% (N = 6) and the “PASI 75 response rate” value ([1]; overall (n=921), Week 16) was 72.1%. The “PASI 75 response rate” value ([1]; overall (n=966), Week 4) was 19.4%, the “PASI 75 response rate” value ([1]; patients who had failed to respond to systemic therapy (n=152), Week 16) was 70.4% and the “PASI 75 response rate” value ([1]; patients who had failed to respond to systemic therapy (n=160), Week 4) was 15.6%. The “PASI 75 response rate” value ([1]; patients who had received systemic therapies (n=491), Week 16) was 72.7%, the “PASI 75 response rate” value ([1]; patients who had received systemic therapies (n=511), Week 4) was 21.7% and the lymphomas ([2]; 52-week study) was “no lymphomas were diagnosed”. For the same substance, the opportunistic infection ([2]; 52-week study) was “One case of oral candidiasis”, the tuberculosis ([2]; 52-week study, patient PPD+ve at baseline, non-compliant with INH prophylaxis) was “one case of presumptive tuberculosis” and the “Allergic Reaction, rate” value [2, 4] was 0.002 Event/PY. The “Congestive Heart Failure, rate” value [2, 4] was 0.002 Event/PY, the “Demyelinating Disorder, rate” value [2, 4] was 0 Event/PY and the “Injection Site Reaction, rate” value [2, 4] was 0.017 Event/PY. The “Lupus-like Syndrome, rate” value [2, 4] was 0 Event/PY, the “Lymphoma, rate” value [2, 4] was 0 Event/PY and the “Malignancies, excluding NMSC + lymphoma, rate” value [2, 4] was 0.004 Event/PY. The “Non-melanoma skin cancers, rate” value [2, 4] was 0.013 Event/PY, the “Tuberculosis (TB), rate” value [2, 4] was 0.002 Event/PY and the “AEs leading to withdrawal, rate” value [2, 5] was 0.078 Event/PY. The “Any AE, rate” value [2, 5] was 3.991 Event/PY, the “Serious AEs, rate” value [2, 5] was 0.061 Event/PY and the “Allergic Reaction, rate” value ([2]; Period A (250.2 PY)) was 0.004 Event/PY. For the same substance, the “Congestive Heart Failure, rate” value ([2]; Period A (250.2 PY)) was 0.004 Event/PY, the “Demyelinating Disorder, rate” value ([2]; Period A (250.2 PY)) was 0 Event/PY and the “Injection Site Reaction, rate” value ([2]; Period A (250.2 PY)) was 0.276 Event/PY. The “Lupus-like Syndrome, rate” value ([2]; Period A (250.2 PY)) was 0 Event/PY, the “Lymphoma, rate” value ([2]; Period A (250.2 PY)) was 0 Event/PY and the “Malignancies, excluding NMSC + lymphoma, rate” value ([2]; Period A (250.2 PY)) was 0.008 Event/PY. The “Non-melanoma skin cancers, rate” value ([2]; Period A (250.2 PY)) was 0.016 Event/PY, the “Tuberculosis (TB), rate” value ([2]; Period A (250.2 PY)) was 0 Event/PY and the “AEs leading to withdrawal, rate” value ([2]; Period A (250.2 PYs)) was 0.072 Event/PY. The “Any AE, rate” value ([2]; Period A (250.2 PYs)) was 4.616 Event/PY, the “Serious AEs, rate” value ([2]; Period A (250.2 PYs)) was 0.068 Event/PY and the “AEs leading to withdrawal, percentage” value ([2]; Period A (N = 814)) was 1.7%. The “Allergic Reaction, percentage” value ([2]; Period A (N = 814)) was 1%, the “Any AE, percentage” value ([2]; Period A (N = 814)) was 62.2‡ % and the “Congestive Heart Failure, percentage” value ([2]; Period A (N = 814)) was 1%. For the same substance, the “Demyelinating Disorder, percentage” value ([2]; Period A (N = 814)) was 0%, the “Injection Site Reaction, percentage” value ([2]; Period A (N = 814)) was 6.9% and the “Lupus-like Syndrome, percentage” value ([2]; Period A (N = 814)) was 0%. For the same substance, the “Lymphoma, percentage” value ([2]; Period A (N = 814)) was 0%, the “Malignancies, excluding NMSC + lymphoma, percentage” value ([2]; Period A (N = 814)) was 0.2% and the “Non-melanoma skin cancers, percentage” value ([2]; Period A (N = 814)) was 0.5%. The “Opportunistic Infections, excluding TB, percentage” value ([2]; Period A (N = 814)) was 0%, the “Serious AEs, percentage” value ([2]; Period A (N = 814)) was 1.8% and the “Serious Infectious AEs, percentage” value ([2]; Period A (N = 814)) was 0.6%. The “Severe Infectious AEs, percentage” value ([2]; Period A (N = 814)) was 0.7%, the “Tuberculosis (TB), percentage” value ([2]; Period A (N = 814)) was 0% and the Nasopharyngitis ([2]; Period A (N = 814), common AE ≧5%) was 45 (5.3) n (%). The “patients with serious AEs” value ([2]; Period A (weeks 0-16)) was 1.8%, the Nasopharyngitis [2, 6] was 5.3% and the Sinusitis [2, 6] was 2.7%. The “upper respiratory tract infections” value [2, 6] was 7.2% and the serious infections [3] was “no patients experienced serious infections”.

Source: patent US9605064B2, “Methods and compositions for treatment of skin disorders” (AbbVie Biotechnology Ltd, priority 2006, dated 2017)
